This test addresses T1, human M-CSF (macrophage colony stimulating factor) (human, UniProt P09603 33-190, limits assumed).
T1 sequence: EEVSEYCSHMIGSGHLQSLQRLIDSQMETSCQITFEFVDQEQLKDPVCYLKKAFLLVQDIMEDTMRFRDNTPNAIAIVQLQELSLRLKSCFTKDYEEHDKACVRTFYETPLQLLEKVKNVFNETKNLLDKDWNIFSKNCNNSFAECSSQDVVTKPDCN
Description: cell-based or functional assay.

B1: M-CSF-specific murine antibody RX1 (antibody, V domains shown)
VH: DVQLQESGPGLVKPSQSLSLTCTVTDYSITSDYAWNWIRQFPGNKLEWMGYISYSGSTSYNPSLKSRISITRDTSKNQFFLQLNSVTTEDTATYYCASFDYAHAMDYWGQGTSVTVSS
VL: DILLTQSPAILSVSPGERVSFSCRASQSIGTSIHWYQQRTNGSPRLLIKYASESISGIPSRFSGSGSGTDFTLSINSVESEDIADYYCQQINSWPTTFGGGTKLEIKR
For the molecule B1, the “EC50 of M-CSF neutralization” value stood at 2 ng/mL.

(Values after US20080233118A1 (Novartis, published 2008).)
